The results in this text go back to patent US20180073089.

This data set concerns the target recombinant substrate protein VAMP-2 (2-94)-GFP (UniProt P63027).

Sequence of recombinant substrate protein VAMP-2 (2-94)-GFP (P63027 2-94): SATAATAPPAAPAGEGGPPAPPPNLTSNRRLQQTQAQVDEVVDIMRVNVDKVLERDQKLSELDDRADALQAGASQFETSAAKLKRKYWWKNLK

Consider native BoNT/F (nBoNT/F) control, for which the “% of cleaved product” value was found to be 65% versus 46% and the specific activity is 26 nmol/h/pmol vs 18 nmol/h/pmol.
